# Measured values from patent US20130130922A1, “ANALYSIS OF METHYLATION SITES” (Centre for Addiction and Mental Health, priority 2011, published 2013).
# B1: HpaII (Q104A/N335A): His6-tagged M.HpaII C5 DNA methyltransferase (CCGG target site) double-alanine mutant Q104A/N335A (protein, UniProt P15446 1-358, looked up, variant Q104A N335A)
# Type II methyltransferase …: MKDVLDDNLLEEPAAQYSLFEPESNPNLREKFTFIDLFAGIGGFRIAMQNLGGKCIFSSEWDEQAQKTYEANFGDLPYGDITLEETKAFIPEKFDILCAGFPCAAFSIAGKRGGFEDTRGTLFFDVAEIIRRHQPKAFFLENVKGLKNHDKGRTLKTILNVLREDLGYFVPEPAIVNAKNFGVPQNRERIYIVGFHKSTGVNSFSYPEPLDKIVTFADIREEKTVPTKYYLSTQYIDTLRKHKERHESKGNGFGYEIIPDDGIANAIVVGGMGRERNLVIDHRITDFTPTTNIKGEVNREGIRKMTPREWARLQGFPDSYVIPVSDASAYKQFGASVAVPAIQATGKKILEKLGNLYD
# modifications: His6 tag
# Test system: Control-H reference system (specific and nonspecific 200 bp DNA fragments from pBR322)
# Assay: mTAG labeling, biotinylation, capture on streptavidin beads and multiplex real-time PCR of Control-H reference system
# Conditions: Control-H alone; Ado-11-amine cofactor; 228 nM enzyme; 37° C. 2 hours; percentage of material used for bead separation
molecule,measurement,value
B1,level of nonspecific probe found on beads,5-6%
same,yield of unmethylated (specific) probe recovered on beads,50-60%
